Assay results published in article PMC3486956.

Molecular target: aggregated glucose-6-phosphate dehydrogenase (G6PDH) from Leuconostoc mesenteroides (Leuconostoc mesenteroides) (UniProt P11411)
Test: retention with aggregates on a 0.1-μm filter, SDS-PAGE

Chain of UniProt P11411 (P11411 whole entry): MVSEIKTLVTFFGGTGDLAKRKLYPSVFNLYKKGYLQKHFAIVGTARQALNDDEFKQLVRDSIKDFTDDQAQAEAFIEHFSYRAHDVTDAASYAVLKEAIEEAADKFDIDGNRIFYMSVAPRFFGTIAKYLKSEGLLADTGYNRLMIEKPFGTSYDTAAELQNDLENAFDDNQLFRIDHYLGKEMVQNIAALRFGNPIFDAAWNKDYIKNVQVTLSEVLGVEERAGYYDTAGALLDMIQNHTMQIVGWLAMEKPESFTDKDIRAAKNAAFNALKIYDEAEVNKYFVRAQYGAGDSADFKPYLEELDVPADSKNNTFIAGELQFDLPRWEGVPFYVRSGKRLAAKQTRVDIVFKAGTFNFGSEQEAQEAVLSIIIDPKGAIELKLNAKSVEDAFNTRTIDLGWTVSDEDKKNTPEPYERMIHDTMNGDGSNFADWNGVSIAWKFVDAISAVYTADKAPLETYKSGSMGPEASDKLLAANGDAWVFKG

decrease of the amount bound compared to wt ClpB	Substance
50%	ClpB 2P (GG motif converted into PP) (from UniProt P63284 1-857) (natural protein)
50%	ClpB 4G (four Gly inserted in the N-terminal linker) (from UniProt P63284 1-857) (natural protein)
